The values that follow come from EP4386000A1 (Nanjing Novoacine Bio-Technology Co., Ltd., dated 2024).

Experiment [1] addresses T1, CD25 on CD4+CD25+ Treg cells isolated from human PBMCs (human, UniProt P01589 22-272).
T1 sequence (looked up): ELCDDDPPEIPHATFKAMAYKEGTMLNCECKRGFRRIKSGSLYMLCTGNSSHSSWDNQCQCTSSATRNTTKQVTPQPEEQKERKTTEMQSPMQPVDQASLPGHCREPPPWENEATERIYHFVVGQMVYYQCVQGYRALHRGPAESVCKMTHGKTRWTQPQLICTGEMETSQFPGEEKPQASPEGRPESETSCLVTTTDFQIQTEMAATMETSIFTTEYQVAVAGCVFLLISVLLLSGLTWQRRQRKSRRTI
Description: cell-based or functional assay.

In experiment [2] the target is T2, human CD25 (NP_000408.1) (Met 1-Cys 213) C-terminally fused with 6-histidine tag (human, UniProt P01589 22-213).
T2 construct: range 1-213; Expressed in CHO-K1 cells; also called human CD25-his
T2 sequence: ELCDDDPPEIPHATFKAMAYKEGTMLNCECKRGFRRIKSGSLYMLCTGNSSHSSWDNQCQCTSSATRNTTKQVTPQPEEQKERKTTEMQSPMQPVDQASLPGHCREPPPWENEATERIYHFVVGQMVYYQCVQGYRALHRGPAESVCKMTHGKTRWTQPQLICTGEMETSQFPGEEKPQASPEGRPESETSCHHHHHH
The experiment in a line: SPR (BIAcore X100), human CD25-his captured by anti-histidine antibody, antibody as analyte, 1:1 model. (In general: Surface plasmon resonance follows binding to a sensor surface in real time, without labels.)

Experiment [3] concerns the target T3, human CD25 on CHO-K1/hCD25 cells (human, UniProt P01589 22-272).
T3 construct: whole, on cells; The construct of the cell line is not described
T3 sequence (looked up): T1 sequence (looked up)
The experiment in a line: flow cytometry on CHO-K1/hCD25 cells.

Experiment [4] has as its target T2, human CD25 (NP_000408.1) (Met 1-Cys …). Description: ELISA, human CD25-his coated.
For experiment [5], the target named is T4, Mouse CD25-his (UniProtKB-P01590, Met1-Lys213) (mouse, UniProt P01590 22-213).
T4 construct: range 1-213; Range begins at Met1 (includes the signal peptide); not shown: his tag
T4 sequence (looked up): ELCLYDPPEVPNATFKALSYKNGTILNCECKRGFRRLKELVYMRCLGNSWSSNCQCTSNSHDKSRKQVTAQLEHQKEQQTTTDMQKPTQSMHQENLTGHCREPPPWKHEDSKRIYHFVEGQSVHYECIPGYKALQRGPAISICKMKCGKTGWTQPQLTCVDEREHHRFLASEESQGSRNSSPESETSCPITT
Description: ELISA, mouse CD25-his coated. On the technique in general: ELISA stands for enzyme-linked immunosorbent assay.

Experiment [6] deals with T5, cyno CD25-his (NCBI-H6WS54, Met1-Arg213) (cyno).
T5 construct: range 1-213; Range begins at Met1 (includes the signal peptide)
The experiment in a line: ELISA, cyno CD25-his coated.

Experiment [7] addresses T1, CD25 on CD4+CD25+ Treg cells isolated …. Description: cell-based or functional assay. The source holds these as a separate data set.
The target in experiment [8] is T2, human CD25 (NP_000408.1) (Met 1-Cys …). Description: SPR (BIAcore X100), human CD25-his captured by anti-histidine antibody, antibody as analyte, 1:1 model. The source holds these as a separate data set.

Read-outs that look alike come from different tables or passages of the source.

B1: humanized antibody 2046-18H1L1-m2 (antibody, human IgG1, kappa, V domains shown)
VH: EVQLQESGPGLVKPSQTLSLTCTVSGYSITSDYAWNWIRQPPGKGLEWIGYISYSGITIYNPSLKSRVTISRDTSKNQFSLKLSSVTAADTAVYYCARWLLQIYYAMDYWGQGTLVTVSS
VL: EIVLTQSPGTLSLSPGERATLSCSSSQSLVHSNGNTYLHWYQQKPGQAPRLLIYKVSNRFSGIPDRFSGSGSGTDFTLTISRLEPEDFAVYYCSQSTHVPLTFGQGTKLEIKR
The Kd is a measure of binding affinity in units of concentration. A high value points to lower affinity. A word on the koff: it is the first-order rate constant of dissociation. A higher koff goes with a short-lived complex. As usually defined, the kon is the rate constant with which the complex forms. Low readings indicate slower complex formation, high ones faster complex formation. Turning to B1, the “EC50, killing Tregs in vitro (ADCC reporter, jurkat/CD16a/NFAT-luc)” value in experiment [1] amounted to 82.6 µg/mL. In experiment [2], this molecule yielded a Kd of 2.45 nM, an off-rate (koff) of 0.00137 s⁻¹ and a kon of 560000 M⁻¹ s⁻¹.

B2: chimeric antibody 2046-36H2L1 (antibody, human IgG1, kappa, V domains shown)
VH: QIQLVQSGPELKKPGETVRISCKASGYTFTTAGMQWVQKMPGKGLKWIGWINTHSGVPKYAEDFKGRFAFSLETSASTAYLQISNLKNEDTATYFCASDYAFGYWGQGTLVTVSA
VL: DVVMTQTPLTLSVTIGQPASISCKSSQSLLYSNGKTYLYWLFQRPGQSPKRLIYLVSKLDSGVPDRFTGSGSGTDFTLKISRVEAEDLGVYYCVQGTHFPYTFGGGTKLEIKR
notes: Chimeric, human IgG1/kappa; also called 2046-36ix
Usually EC50 stands for the concentration giving half of the maximal effect. Low readings indicate greater potency, high ones weaker potency. In the case of B2, in experiment [3], the concentration giving a half-maximal response (EC50) was determined as 0.00167 µg/mL and the “Relative activity (%) compared with 686” value is 73.3%. Besides, in experiment [4], the EC50 was 0.103 µg/mL and the “Relative activity (%) compared with 686” value was 101%. In addition, the binding result in experiment [5] is on record as “no binding (tested: starting at 100 ng/mL)”. In experiment [6], this molecule displayed an EC50 of 0.0549 µg/mL. Moreover, in experiment [7], the “EC50, killing Tregs in vitro (ADCC reporter, jurkat/CD16a/NFAT-luc)” value worked out at 52.4 µg/mL and the “Relative activity (%) compared with 686, killing Tregs in vitro” value turned out to be 248%. For the same molecule, in experiment [8], binding was put at a Kd of 2.45 nM, the koff worked out at 0.00933 s⁻¹ and the kon stood at 3.8e+06 M⁻¹ s⁻¹.
